{"source": "patent US20140322262A1", "key": {"Histones": {"target": "Histones", "assay": "Luminex AtheNA Multi-Lyte ANA Test, 0.15 µg mab per test"}, "centromere B protein": {"target": "centromere B protein (UniProt P07199)", "sequence (P07199 2-599)": "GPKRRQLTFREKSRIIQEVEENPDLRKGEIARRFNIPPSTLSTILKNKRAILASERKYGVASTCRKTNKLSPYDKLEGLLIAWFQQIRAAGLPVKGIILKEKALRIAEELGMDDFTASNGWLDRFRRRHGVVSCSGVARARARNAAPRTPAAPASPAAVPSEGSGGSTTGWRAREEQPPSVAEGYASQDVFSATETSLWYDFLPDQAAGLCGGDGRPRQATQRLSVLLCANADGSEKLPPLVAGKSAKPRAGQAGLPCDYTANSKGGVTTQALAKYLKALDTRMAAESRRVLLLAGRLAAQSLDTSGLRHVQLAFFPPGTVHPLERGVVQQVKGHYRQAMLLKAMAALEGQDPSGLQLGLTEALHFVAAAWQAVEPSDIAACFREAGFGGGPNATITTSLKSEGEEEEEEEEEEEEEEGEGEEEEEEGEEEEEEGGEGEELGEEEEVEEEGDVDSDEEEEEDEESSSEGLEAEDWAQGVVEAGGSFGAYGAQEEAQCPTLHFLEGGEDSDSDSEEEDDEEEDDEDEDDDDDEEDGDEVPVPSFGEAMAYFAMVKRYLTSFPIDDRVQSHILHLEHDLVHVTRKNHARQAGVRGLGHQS", "assay": "Luminex AtheNA Multi-Lyte ANA Test, 0.15 µg mab per test"}, "SS-A/Ro": {"target": "SS-A/Ro", "assay": "Luminex AtheNA Multi-Lyte ANA Test, 0.15 µg mab per test"}, "FMS peptide (T4; HIV-1)": {"target": "FMS peptide (T4; HIV-1)", "sequence (P03375 656-683)": "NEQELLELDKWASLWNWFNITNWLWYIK", "assay": "SPR, FMS conjugate in DMPC liposomes"}, "Mab 4E10": {"target": "Mab 4E10", "assay": "ELISA; gp140 (19.25-1230 nM) mixed with 10 µg/ml 4E10 MAb, added to wells with 1.35 µg cardiolipin"}}}
{"substance": "IgG1b12 (antibody)", "values": [{"measurement": "relative units based on a standard curve (relative units)", "setting": "Histones", "value": 185}, {"measurement": "relative units based on a standard curve (relative units)", "setting": "centromere B protein", "value": 479}]}
{"substance": "Mab 2F5 (antibody)", "values": [{"measurement": "relative units based on a standard curve (relative units)", "setting": "SS-A/Ro", "value": 290}, {"measurement": "relative units based on a standard curve (relative units)", "setting": "Histones", "value": 1010}, {"measurement": "relative units based on a standard curve (relative units)", "setting": "centromere B protein", "value": 1780}, {"measurement": "Kd", "setting": "FMS peptide (T4; HIV-1)", "value": 0.18, "unit": "nM"}]}
{"substance": "Mab 4E10 (antibody)", "values": [{"measurement": "relative units based on a standard curve (relative units)", "setting": "SS-A/Ro", "value": 221}, {"measurement": "Kd", "setting": "FMS peptide (T4; HIV-1)", "value": 27, "unit": "nM"}]}
{"substance": "soluble HIV-1 Env gp140 oligomers (CON-S)", "values": [{"measurement": "IC50", "setting": "Mab 4E10", "value": 145, "unit": "nM"}]}
